Data published in the supplement of paper PMC10567573.

B1: TIA1 (parent)
chain: TYECRCIGEEKEMWNFGEKYARF
B2: PLAGL1 (parent)
chain: CKDFLCQFCAQRFGRKDHLTRHTK
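Note: lentivirally expressed fusions sorted by FACS into six bins by GFP to DsRed ratio, PSI derived from sequencing read proportions per bin multiplied by bin number.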

Variants of: B1
Test: protein stability index of a GFP-peptide fusion (GPS, HEK-293T) (PSI 1-6); higher = more stable
Details: c terminus: native
PYECRCIGEEKEMWNFGEKYARF [T1P] gave a protein stability index of 3.63.
With LYECRCIGEEKEMWNFGEKYARF [T1L] the protein stability index was 1.7.
EYECRCIGEEKEMWNFGEKYARF [T1E] gave a protein stability index of 4.38.
Variant VYECRCIGEEKEMWNFGEKYARF [T1V] has a protein stability index of 1.8.
With KYECRCIGEEKEMWNFGEKYARF [T1K] the protein stability index was 1.83.
Variant MYECRCIGEEKEMWNFGEKYARF [T1M] has a protein stability index of 3.02.
In the case of QYECRCIGEEKEMWNFGEKYARF [T1Q], the protein stability index is reported as 2.35.
For IYECRCIGEEKEMWNFGEKYARF [T1I], the protein stability index was 2.19.
HYECRCIGEEKEMWNFGEKYARF [T1H] showed a protein stability index of 2.31.
For NYECRCIGEEKEMWNFGEKYARF [T1N], the protein stability index was 3.21.
For SYECRCIGEEKEMWNFGEKYARF [T1S], the protein stability index was 2.51.
CYECRCIGEEKEMWNFGEKYARF [T1C] gave a protein stability index of 1.23.
Variant DYECRCIGEEKEMWNFGEKYARF [T1D] has a protein stability index of 3.71.
GYECRCIGEEKEMWNFGEKYARF [T1G] showed a protein stability index of 2.27.
YYECRCIGEEKEMWNFGEKYARF [T1Y] showed a protein stability index of 1.63.
RYECRCIGEEKEMWNFGEKYARF [T1R] gave a protein stability index of 1.68.
For AYECRCIGEEKEMWNFGEKYARF [T1A], the protein stability index was 2.54.
For WYECRCIGEEKEMWNFGEKYARF [T1W], the protein stability index was 1.68.
With TFECRCIGEEKEMWNFGEKYARF [Y2F] the protein stability index was 4.21.
Variant TMECRCIGEEKEMWNFGEKYARF [Y2M] has a protein stability index of 2.88.
For TNECRCIGEEKEMWNFGEKYARF [Y2N], the protein stability index was 3.75.
With TRECRCIGEEKEMWNFGEKYARF [Y2R] the protein stability index was 3.07.
Work on TQECRCIGEEKEMWNFGEKYARF [Y2Q] yielded a protein stability index of 3.97.
With TDECRCIGEEKEMWNFGEKYARF [Y2D] the protein stability index was 4.27.
Work on TAECRCIGEEKEMWNFGEKYARF [Y2A] yielded a protein stability index of 2.94.
TCECRCIGEEKEMWNFGEKYARF [Y2C] gave a protein stability index of 3.3.
TVECRCIGEEKEMWNFGEKYARF [Y2V] showed a protein stability index of 3.16.
Work on TSECRCIGEEKEMWNFGEKYARF [Y2S] yielded a protein stability index of 3.2.
With TGECRCIGEEKEMWNFGEKYARF [Y2G] the protein stability index was 4.38.
THECRCIGEEKEMWNFGEKYARF [Y2H] gave a protein stability index of 2.44.
With TPECRCIGEEKEMWNFGEKYARF [Y2P] the protein stability index was 3.99.
Work on TTECRCIGEEKEMWNFGEKYARF [Y2T] yielded a protein stability index of 4.18.
Work on TIECRCIGEEKEMWNFGEKYARF [Y2I] yielded a protein stability index of 3.31.
TKECRCIGEEKEMWNFGEKYARF [Y2K] showed a protein stability index of 3.51.
For TEECRCIGEEKEMWNFGEKYARF [Y2E], the protein stability index was 4.79.
TLECRCIGEEKEMWNFGEKYARF [Y2L] gave a protein stability index of 3.66.

Variants of: B2
Test: as above
Details: c terminus: a fixed tail appended
With CKDFLCQFCAQRFGRKDHLTWHTK [R21W] the protein stability index was 2.16.
Work on CKDFLCQFCAQRFGRKDHLTYHTK [R21Y] yielded a protein stability index of 1.85.
With CKDFLCQFCAQRFGRKDHLTRHVK [T23V] the protein stability index was 1.87.
CKDFLCQFCAQRFGRKDHLTRHAK [T23A] gave a protein stability index of 2.
For CKDFLCQFCAQRFGRKDHLTRHKK [T23K], the protein stability index was 2.44.
Variant CKDFLCQFCAQRFGRKDHLTRHPK [T23P] has a protein stability index of 1.76.
CKDFLCQFCAQRFGRKDHLTRHSK [T23S] gave a protein stability index of 2.38.
Variant CKDFLCQFCAQRFGRKDHLTRHNK [T23N] has a protein stability index of 1.81.
With CKDFLCQFCAQRFGRKDHLTRHFK [T23F] the protein stability index was 2.23.
In the case of CKDFLCQFCAQRFGRKDHLTRHHK [T23H], the protein stability index is reported as 2.02.
Work on CKDFLCQFCAQRFGRKDHLTRHDK [T23D] yielded a protein stability index of 2.81.
CKDFLCQFCAQRFGRKDHLTRHIK [T23I] showed a protein stability index of 2.4.
In the case of CKDFLCQFCAQRFGRKDHLTRHRK [T23R], the protein stability index is reported as 1.95.
Variant CKDFLCQFCAQRFGRKDHLTRHMK [T23M] has a protein stability index of 2.04.
CKDFLCQFCAQRFGRKDHLTRHLK [T23L] showed a protein stability index of 1.62.
Variant CKDFLCQFCAQRFGRKDHLTRHYK [T23Y] has a protein stability index of 1.77.
With CKDFLCQFCAQRFGRKDHLTRHWK [T23W] the protein stability index was 1.51.
With CKDFLCQFCAQRFGRKDHLTRHGK [T23G] the protein stability index was 2.15.
Work on CKDFLCQFCAQRFGRKDHLTRHCK [T23C] yielded a protein stability index of 2.17.
Work on CKDFLCQFCAQRFGRKDHLTRHQK [T23Q] yielded a protein stability index of 3.45.
With CKDFLCQFCAQRFGRKDHLTRHEK [T23E] the protein stability index was 1.68.
With CKDFLCQFCAQRFGRKDHLTRHTA [K24A] the protein stability index was 2.73.
CKDFLCQFCAQRFGRKDHLTRHTM [K24M] gave a protein stability index of 1.74.
Work on CKDFLCQFCAQRFGRKDHLTRHTW [K24W] yielded a protein stability index of 2.03.
Variant CKDFLCQFCAQRFGRKDHLTRHTC [K24C] has a protein stability index of 2.83.
With CKDFLCQFCAQRFGRKDHLTRHTY [K24Y] the protein stability index was 1.56.
For CKDFLCQFCAQRFGRKDHLTRHTR [K24R], the protein stability index was 2.08.
For CKDFLCQFCAQRFGRKDHLTRHTI [K24I], the protein stability index was 2.08.
Variant CKDFLCQFCAQRFGRKDHLTRHTV [K24V] has a protein stability index of 1.67.
Work on CKDFLCQFCAQRFGRKDHLTRHTP [K24P] yielded a protein stability index of 2.21.
Work on CKDFLCQFCAQRFGRKDHLTRHTE [K24E] yielded a protein stability index of 2.3.
In the case of CKDFLCQFCAQRFGRKDHLTRHTN [K24N], the protein stability index is reported as 1.9.
With CKDFLCQFCAQRFGRKDHLTRHTH [K24H] the protein stability index was 2.41.
In the case of CKDFLCQFCAQRFGRKDHLTRHTS [K24S], the protein stability index is reported as 2.02.
In the case of CKDFLCQFCAQRFGRKDHLTRHTD [K24D], the protein stability index is reported as 1.73.
In the case of CKDFLCQFCAQRFGRKDHLTRHTT [K24T], the protein stability index is reported as 2.24.
For CKDFLCQFCAQRFGRKDHLTRHTL [K24L], the protein stability index was 1.49.
For CKDFLCQFCAQRFGRKDHLTRHTQ [K24Q], the protein stability index was 2.25.
In the case of CKDFLCQFCAQRFGRKDHLTRHTF [K24F], the protein stability index is reported as 2.4.
Variant CKDFLCQFCAQRFGRKDHLTRHTG [K24G] has a protein stability index of 1.74.
For CKDFLCQFCAQRFGRKDHLTRATK [H22A], the protein stability index was 2.03.
For CKDFLCQFCAQRFGRKDHLTRLTK [H22L], the protein stability index was 1.85.
Work on CKDFLCQFCAQRFGRKDHLTRFTK [H22F] yielded a protein stability index of 1.65.
For CKDFLCQFCAQRFGRKDHLTRKTK [H22K], the protein stability index was 1.68.
CKDFLCQFCAQRFGRKDHLTRPTK [H22P] showed a protein stability index of 2.3.
CKDFLCQFCAQRFGRKDHLTRITK [H22I] showed a protein stability index of 1.76.
In the case of CKDFLCQFCAQRFGRKDHLTRYTK [H22Y], the protein stability index is reported as 2.7.
In the case of CKDFLCQFCAQRFGRKDHLTRTTK [H22T], the protein stability index is reported as 2.57.
CKDFLCQFCAQRFGRKDHLTRNTK [H22N] gave a protein stability index of 1.48.
In the case of CKDFLCQFCAQRFGRKDHLTRGTK [H22G], the protein stability index is reported as 2.56.
CKDFLCQFCAQRFGRKDHLTRCTK [H22C] gave a protein stability index of 2.4.
With CKDFLCQFCAQRFGRKDHLTRRTK [H22R] the protein stability index was 2.15.
For CKDFLCQFCAQRFGRKDHLTRMTK [H22M], the protein stability index was 2.12.
CKDFLCQFCAQRFGRKDHLTRETK [H22E] showed a protein stability index of 1.8.
For CKDFLCQFCAQRFGRKDHLTRWTK [H22W], the protein stability index was 2.52.
Variant CKDFLCQFCAQRFGRKDHLTRVTK [H22V] has a protein stability index of 2.81.
CKDFLCQFCAQRFGRKDHLTRDTK [H22D] gave a protein stability index of 2.09.
Work on CKDFLCQFCAQRFGRKDHLTRQTK [H22Q] yielded a protein stability index of 1.77.
CKDFLCQFCAQRFGRKDHLTRSTK [H22S] gave a protein stability index of 2.04.
